In US20200024598A1, “ISOLATED POLY[…] REGION, HOST CELL COMPRISING THE SAME, AND METHOD OF […] GENE IN THE HOST CELL” (priority 2018, published 2020):

B1: P4381: promoter polynucleotide comprising SEQ ID NO: 1 isolated from Gene_4381 of Pseudomonas saitens KCTC 13107BP (nucleic acid)
DNA: TAGACCTGACTGCAGAGCGAATTCGGGCCTGATTCAGGGCAAAAATGGCCAGAAACCATTTTTCGCGTAAAAAATATTCATTCGCGAGTGCTTTTTTTCCAAGCCCGTTTAACCCTCAAGCCCCGGAAACCGGGGCTTCGAGCATTTCAGGCAGCAGACCGAAGCTAACATCGCAGCAAACTGTGGTTCAGGGGGGTTCCAAAGCGCACATTTCGACTATGATAGCTCGGTGTGCCCAGTTGGCCTGAGCAGCACAGTACTACTGAAAATATAAGTTTCTTGGAGATACACC
modifications: Synthetic Pseudomonas saitens KCTC 13107BP

What was measured:
Assay type in all cases: cell-based, Pseudomonas saitens KCTC 13107BP
Ptac-cm^R SF1 strain = experiment: MIC test of chloramphenicol on recombinant SF1 strain (Ptac promoter); settings: Pseudomonas, 48 h, read-out: MIC of Chloramphenicol
Experimental: (§1) A pB-P4381 vector comprising cm^R gene (cat) downstream of the promoter of highly expressed gene Gene_4381, which was selected based on RNA-seq data, was constructed as described in (2). This vector was then introduced into SF1 strain by electroporation. As control groups, a pSF-EX1 vector and a pBBR-122 vector were introduced into separate SF1 strains in the same manner as described above.
(§2) Each of the recombinant SF1 strains was cultured in separate wells of a microplate containing LB medium containing predetermined chloramphenicol, and growth thereof was examined to confirm minimal inhibitory concentrations (MICs). Culturing was performed at 30° C. for 2 days in an LB medium supplemented with 400 μg/ml of chloramphenicol by ½ dilution at each concentration.

Pcat-cm^R SF1 strain = experiment: MIC test of chloramphenicol on recombinant SF1 strain (Pcat promoter); settings: Pseudomonas, 48 h, LB medium, 30° C., 2 days
Experimental: as §1, §2

P4381-cm^R SF1 strain = experiment: MIC test of chloramphenicol on recombinant SF1 strain (P4381 promoter)
Experimental: as §1, §2

cat gene = experiment: cat mRNA level by RT-PCR; settings: SF1 strain
Description: Pcat-cm^R, Ptac-cm^R, and P4381-cm^R cells cultured in (3.1) were lysed to obtain cell lysates, which were then centrifuged to obtain supernatants, respectively. Each supernatant was subjected to RT-PCR using a set of primers of SEQ ID NOS: 13 and 14.
In FIG. 4, the vertical axis represents a ratio when a cycle threshold (CT) value of Pcat promoter is regarded as 1, and Pcat, Ptac, and P4381 on the horizontal axis represent SF1 strains introduced with […], respectively.

cat protein = experiment: SDS-PAGE analysis of cat protein expression in cell lysates; settings: SDS-PAGE of soluble proteins, SF1 strain
Description: Pcat-cm^R, Ptac-cm^R, and P4381-cm^R cells cultured in (3.1) were lysed to obtain cell lysates, from which soluble proteins were isolated using a BuGBusTER® Protein Extraction Reagent, respectively. The isolated proteins were subjected to SDS-PAGE to examine cat expression.
In FIG. 5, the arrow indicates the position of cat protein.

Row | Molecule | MIC (Ptac-cm^R SF1 strain) | MIC (Pcat-cm^R SF1 strain) | MIC (P4381-cm^R SF1 strain; Pseudomonas, 48 h, strain P4381-cm^R, LB medium, 30° C., 2 days) | MIC relative to that of existing Pcat and Ptac (P4381-cm^R SF1 strain; chloramphenicol MIC, SF1 strain) | cat mRNA level relative to Pcat (cat gene; compared with Pcat promoter) | cat mRNA level relative to Ptac (cat gene; compared with Ptac promoter) | cat protein expression level compared with Pcat and Ptac (cat protein)
1 | O=C(N[C@H](CO)[C@H](O)c1ccc([N+](=O)[O-])cc1)C(Cl)Cl [Chloramphenicol, chloramphenicol] | > 100 µg/mL | > 100 µg/mL | > 200 µg/mL |  |  |  | 
2 | B1 |  |  |  | twice or higher | 158 times | 32 times | significantly higher
